Experimental data taken from PMC10156912, “Mechanism of assembly, activation and lysine selection by the SIN3B histone deacetylase complex” (Nature Communications, 2023).

B1: SIN3B isoform 2 (natural protein, human, UniProt O75182-2 1-1130, looked up)
chain: MAHAGGGSGGSGAGGPAGRGLSGARWGRSGSAGHEKLPVHVEDALTYLDQVKIRFGSDPATYNGFLEIMKEFKSQSIDTPGVIRRVSQLFHEHPDLIVGFNAFLPLGYRIDIPKNGKLNIQSPLTSQENSHNHGDGAEDFKQQVPYKEDKPQVPLESDSVEFNNAISYVNKIKTRFLDHPEIYRSFLEILHTYQKEQLNTRGRPFRGMSEEEVFTEVANLFRGQEDLLSEFGQFLPEAKRSLFTGNGPCEMHSVQKNEHDKTPEHSRKRSRPSLLRPVSAPAKKKMKLRGTKDLSIAAVGKYGTLQEFSFFDKVRRVLKSQEVYENFLRCIALFNQELVSGSELLQLVSPFLGKFPELFAQFKSFLGVKELSFAPPMSDRSGDGISREIDYASCKRIGSSYRALPKTYQQPKCSGRTAICKEVLNDTWVSFPSWSEDSTFVSSKKTPYEEQLHRCEDERFELDVVLETNLATIRVLESVQKKLSRMAPEDQEKFRLDDSLGGTSEVIQRRAIYRIYGDKAPEIIESLKKNPVTAVPVVLKRLKAKEEEWREAQQGFNKIWREQYEKAYLKSLDHQAVNFKQNDTKALRSKSLLNEIESVYDEHQEQHSEGRSAPSSEPHLIFVYEDRQILEDAAALISYYVKRQPAIQKEDQGTIHQLLHQFVPSLFFSQQLDLGASEESADEDRDSPQGQTTDPSERKKPAPGPHSSPPEEKGAFGDAPATEQPPLPPPAPHKPLDDVYSLFFANNNWYFFLRLHQTLCSRLLKIYRQAQKQLLEYRTEKEREKLLCEGRREKGSDPAMELRLKQPSEVELEEYYPAFLDMVRSLLEGSIDPTQYEDTLREMFTIHAYVGFTMDKLVQNIARQLHHLVSDDVCLKVVELYLNEKKRGAAGGNLSSRCVRAARETSYQWKAERCMADENCFKVMFLQRKGQVIMTIELLDTEEAQTEDPVEVQHLARYVEQYVGTEGASSSPTEGFLLKPVFLQRNLKKFRRRWQSEQARALRGEARSSWKRLVGVESACDVDCRFKLSTHKMVFIVNSEDYMYRRGTLCRAKQVQPLVLLRHHQHFEEWHSRWLEDNVTVEAASLVQDWLMGEEDEDMVPCKTLCETVHVHGLPVTRYRVQYSRRPASP
notes: SIN3B isoform 2, human, UniProt O75182-2; codon-optimised cDNA; numbers count on: isoform 2 (O75182-2); Tag removed with 3C protease; RbBP7 was co-expressed to keep SIN3B soluble; also called SIN3 scaffold subunit; corepressor SIN3B; source: High Five insect cells, co-infected with baculoviruses of each subunit; co-purified (Strep-Tactin, GSTrap, Superose 6 SEC); not shown: StrepII, C-terminal, …

Assays:
Conditions in all cases: both partners purified
[1] = biological target: B1; assay: cryo-EM structure; apo SIN3B complex; SIN3B^FL sample (full-length PHF12, 3.4 Å), SIN3B complex sample (PHF12 1-502, 3.7 Å) and SIN3B^core map (2.8 Å); subunits co-expressed with RbBP7 and co-purified, GraFix (glutaraldehyde) treated
[2] = biological target: T1, HDAC2 (human, UniProt Q92769 1-488); assay: as above
T1 construct: HDAC2, human; codon-optimised cDNA; No tag is named for HDAC2; also called histone deacetylase 2; catalytic HDAC module; source: High Five insect cells, co-infected with baculoviruses of each subunit; co-purified (Strep-Tactin, GSTrap, Superose 6 SEC)
T1 sequence (Q92769 whole entry): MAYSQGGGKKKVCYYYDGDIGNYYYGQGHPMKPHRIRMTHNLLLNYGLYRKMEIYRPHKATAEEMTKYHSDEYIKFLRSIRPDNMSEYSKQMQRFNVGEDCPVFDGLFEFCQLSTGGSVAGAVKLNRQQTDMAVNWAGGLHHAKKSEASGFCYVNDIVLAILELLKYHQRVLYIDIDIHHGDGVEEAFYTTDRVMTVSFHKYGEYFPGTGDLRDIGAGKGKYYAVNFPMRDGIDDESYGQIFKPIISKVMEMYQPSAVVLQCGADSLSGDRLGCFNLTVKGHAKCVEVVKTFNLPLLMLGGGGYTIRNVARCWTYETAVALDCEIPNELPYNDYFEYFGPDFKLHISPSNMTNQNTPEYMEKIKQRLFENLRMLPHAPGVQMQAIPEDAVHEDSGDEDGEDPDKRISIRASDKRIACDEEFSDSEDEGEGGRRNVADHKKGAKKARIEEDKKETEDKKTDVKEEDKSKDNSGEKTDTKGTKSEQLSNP

[3] = biological target: T2, MORF4L1 (mortality factor 4-like 1) (human, UniProt Q9UBU8 1-362); assay: as above
T2 construct: MORF4L1, human; codon-optimised cDNA; Tag removed with 3C protease; also called MRG and chromo domain-containing protein; source: High Five insect cells, co-infected with baculoviruses of each subunit; co-purified (Strep-Tactin, GSTrap, Superose 6 SEC); not shown: GST, N-terminal, cleaved
T2 sequence (Q9UBU8 whole entry, the tested form may be a part): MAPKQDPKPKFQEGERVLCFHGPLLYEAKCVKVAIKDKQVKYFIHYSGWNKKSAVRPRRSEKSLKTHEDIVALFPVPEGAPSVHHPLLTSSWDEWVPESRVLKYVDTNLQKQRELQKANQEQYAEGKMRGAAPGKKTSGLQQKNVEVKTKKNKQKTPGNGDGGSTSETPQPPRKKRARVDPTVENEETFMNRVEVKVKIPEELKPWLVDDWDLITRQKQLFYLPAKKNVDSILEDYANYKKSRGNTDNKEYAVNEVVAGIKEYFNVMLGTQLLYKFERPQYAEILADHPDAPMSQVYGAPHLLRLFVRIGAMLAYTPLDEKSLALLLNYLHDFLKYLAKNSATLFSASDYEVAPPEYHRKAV

[4] = biological target: B1; assay: cross-linking; XL-MS: freshly purified SIN3B complex at 1.7 μM with DSSO, on ice for 10 min, quenched with Tris pH 8, trypsin digest, LC-MS

Binder	stoichiometry N [1]	stoichiometry N [2]	stoichiometry N [3]	binding result [4]
PHF12 (full-length) (natural protein, human, UniProt Q96QT6 1-1004, looked up, PHF12, human, full-length; subunit of the SIN3B^FL sample; also called plant homeodomain (PHD) containing protein PHF12; source: High Five insect cells, co-infected with baculoviruses of each subunit; co-purified (Strep-Tactin, GSTrap, Superose 6 SEC)) MWEKMETKTIVYDLDTSGGLMEQIQALLAPPKTDEAEKRSRKPEKEPRRSGRATNHDSCDSCKEGGDLLCCDHCPAAFHLQCCNPPLSEEMLPPGEWMCHRCTVRRKKREQKKELGHVNGLVDKSGKRTTSPSSDTDLLDRSASKTELKAIAHARILERRASRPGTPTSSASTETPTSEQNDVDEDIIDVDEEPVAAEPDYVQPQLRRPFELLIAAAMERNPTQFQLPNELTCTTALPGSSKRRRKEETTGKNVKKTQHELDHNGLVPLPVKVCFTCNRSCRVAPLIQCDYCPLLFHMDCLEPPLTAMPLGRWMCPNHIEHVVLNQKNMTLSNRCQVFDRFQDTVSQHVVKVDFLNRIHKKHPPNRRVLQSVKRRSLKVPDAIKSQYQFPPPLIAPAAIRDGELICNGIPEESQMHLLNSEHLATQAEQQEWLCSVVALQCSILKHLSAKQMPSHWDSEQTEKADIKPVIVTDSSVTTSLQTADKTPTPSHYPLSCPSGISTQNSLSCSPPHQSPALEDIGCSSCAEKSKKTPCGTANGPVNTEVKANGPHLYSSPTDSTDPRRLPGANTPLPGLSHRQGWPRPLTPPAAGGLQNHTVGIIVKTENATGPSSCPQRSLVPVPSLPPSIPSSCASIENTSTLQRKTVQSQIGPPLTDSRPLGSPPNATRVLTPPQAAGDGILATTANQRFSSPAPSSDGKVSPGTLSIGSALTVPSFPANSTAMVDLTNSLRAFMDVNGEIEINMLDEKLIKFLALQRIHQLFPSRVQPSPGSVGTHQLASGGHHIEVQRKEVQARAVFYPLLGLGGAVNMCYRTLYIGTGADMDVCLTNYGHCNYVSGKHACIFYDENTKHYELLNYSEHGTTVDNVLYSCDFSEKTPPTPPSSIVAKVQSVIRRRRHQKQDEEPSEEAAMMSSQAQGPQRRPCNCKASSSSLIGGSGAGWEGTALLHHGSYIKLGCLQFVFSITEFATKQPKGDASLLQDGVLAEKLSLKPHQGPVLRSNSVP	1	1	1	
PHF12^ΔC-terminus (residues 1-502) (domain or fragment, human, UniProt Q96QT6 1-502, looked up, PHF12, human, residues 1-502; lacks the poorly conserved and unstructured C-terminus; subunit of the SIN3B complex sample; also called PHF12^∆C-terminus; PHF12 residues 1-502; source: High Five insect cells, co-infected with baculoviruses of each subunit; co-purified (Strep-Tactin, GSTrap, Superose 6 SEC)) MWEKMETKTIVYDLDTSGGLMEQIQALLAPPKTDEAEKRSRKPEKEPRRSGRATNHDSCDSCKEGGDLLCCDHCPAAFHLQCCNPPLSEEMLPPGEWMCHRCTVRRKKREQKKELGHVNGLVDKSGKRTTSPSSDTDLLDRSASKTELKAIAHARILERRASRPGTPTSSASTETPTSEQNDVDEDIIDVDEEPVAAEPDYVQPQLRRPFELLIAAAMERNPTQFQLPNELTCTTALPGSSKRRRKEETTGKNVKKTQHELDHNGLVPLPVKVCFTCNRSCRVAPLIQCDYCPLLFHMDCLEPPLTAMPLGRWMCPNHIEHVVLNQKNMTLSNRCQVFDRFQDTVSQHVVKVDFLNRIHKKHPPNRRVLQSVKRRSLKVPDAIKSQYQFPPPLIAPAAIRDGELICNGIPEESQMHLLNSEHLATQAEQQEWLCSVVALQCSILKHLSAKQMPSHWDSEQTEKADIKPVIVTDSSVTTSLQTADKTPTPSHYPLSCPSGIST				binds
B1		1		
